Laboratory results from the supplement of paper PMC7877785.
± gives the uncertainty stated by the source.

Assay: self-splicing fitness, log relative to wild type (ln ratio); higher = more splicing; Tetrahymena group I intron in knt gene, E. coli kanamycin selection, DiMSum; sequences stand for … in CUCUCU…GGAGGGAAAAGUUAUCAGGCAUGCACCUGGUAGCUAGUCUUUAAACCAAUAGAUUGCAUCGGUUUAAAAGGCAAGACCGUCAAAUUGCGGGAAAGGGGUCAACAGCCGUUCAGUACCAAGUCUCAGGGGAAACUUUGAGAUGGCCUUGCAAAGGGUAUGGUAAUAAGCUGACGGACAUGGUCCUAACCACGCAGCCAAGUCCUAAGUCAACAGAUCUUCUGUUGAUAUGGAUGCAGUUCACAGACUAAAUGUCGGUCGGGGAAGAUGUAUUCUUCUCAUAAGAUAUAGUCGGACCUCUCCUUAAUGGGAGCUAGCGGAUGAAGUGAUGCAACACUGGAGCCGCUGGGAACUAAUUUGUAUGCGAAAGUAUAUUGAUUAGUUUUGGAGUACUCGUGGUCG
In short: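 Pooled colonies went to amplicon sequencing on an Illumina HiSeq 2500 after six replicate transformations. The plates were LB agar with 100 μg/mL carbenicillin, 50 μM IPTG and 0.2% rhamnose, with or without 25 μg/mL kanamycin, incubated overnight at 37°C or 30°C. The E. coli BL21(DE3) library had all eight P1ex-region intron nucleotides randomised, the intron placed in the knt kanamycin-resistance gene on pET-22b(+). DiMSum fitness is the error-weighted combination of replicate fold changes, kanamycin against none, normalised to wild type.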

| Sequence | self-splicing fitness (ln) (30 °C) | self-splicing fitness (ln) (37 °C) |
| --- | --- | --- |
| GGAAAGCAAUAUUACGAAAG | -4.01 ± 0.35 | -3.08 ± 0.35 |
| GGAAAGCAAUAUUACGAACC | -3.32 ± 0.33 | -1.2 ± 0.19 |
| GGAAAGCAAUAUUACGAAGA | -2.45 ± 0.3 | -1.57 ± 0.21 |
| GGAAAGCAAUAUUACGACAU | -0.445 ± 0.013 | -0.0162 ± 0.033 |
| GGAAAGCAAUAUUACGACCU | -0.756 ± 0.15 | -0.363 ± 0.18 |
| GGAAAGCAAUAUUACGAGAA | – | -1.29 ± 0.27 |
| GGAAAGCAAUAUUACGAGGA | -2.88 ± 0.21 | -1.93 ± 0.24 |
| GGAAAGCAAUAUUACGAGUG | -3.38 ± 0.12 | -1.85 ± 0.1 |
| GGAAAGCAAUAUUACGAUGC | -0.209 ± 0.087 | -0.26 ± 0.12 |
| GGAAAGCAAUAUUACGCAAG | -1.26 ± 0.14 | -1.13 ± 0.18 |
| GGAAAGCAAUAUUACGCAGA | -3.75 ± 0.28 | -1.52 ± 0.18 |
| GGAAAGCAAUAUUACGCGUA | -1.45 ± 0.14 | -1.52 ± 0.13 |
| GGAAAGCAAUAUUACGCUGU | -1.07 ± 0.11 | -0.375 ± 0.17 |
| GGAAAGCAAUAUUACGCUUA | -0.976 ± 0.17 | -0.998 ± 0.19 |
| GGAAAGCAAUAUUACGGCCA | -0.368 ± 0.081 | -0.0522 ± 0.1 |
| GGAAAGCAAUAUUACGGUCU | -2.31 ± 0.12 | -1.17 ± 0.15 |
| GGAAAGCAAUAUUACGGUUC | -3.33 ± 0.43 | -2.23 ± 0.49 |
| GGAAAGCAAUAUUACGUAAU | -1.3 ± 0.07 | -1.23 ± 0.12 |
| GGACAGCAAUAUUACGAGCC | -1.49 ± 0.15 | -2.56 ± 0.25 |
| GGACAGCAAUAUUACGAGUG | -3.32 ± 0.17 | -1.79 ± 0.15 |
| GGACAGCAAUAUUACGAUAC | -0.672 ± 0.084 | -0.478 ± 0.098 |
| GGACAGCAAUAUUACGAUCA | -0.381 ± 0.087 | 0.0425 ± 0.11 |
| GGACAGCAAUAUUACGCAAG | -1.69 ± 0.11 | -1.41 ± 0.12 |
| GGACAGCAAUAUUACGCACG | -0.391 ± 0.084 | 0.295 ± 0.1 |
| GGACAGCAAUAUUACGCAUG | -0.84 ± 0.085 | -0.235 ± 0.11 |

| Sequence | self-splicing fitness (ln) (30 °C) | self-splicing fitness (ln) (37 °C) |
| --- | --- | --- |
| GGACAGCAAUAUUACGCAUU | -0.834 ± 0.062 | -0.622 ± 0.078 |
| GGACAGCAAUAUUACGCCGA | -0.609 ± 0.11 | -0.306 ± 0.12 |
| GGACAGCAAUAUUACGCCGC | – | -1.06 ± 0.5 |
| GGACAGCAAUAUUACGCCGG | -3.95 ± 0.48 | -2.11 ± 0.32 |
| GGACAGCAAUAUUACGCCUC | -0.953 ± 0.32 | -0.751 ± 0.3 |
| GGACAGCAAUAUUACGCCUG | -2.65 ± 0.15 | -0.758 ± 0.13 |
| GGACAGCAAUAUUACGCGAU | -2.52 ± 0.17 | -2.52 ± 0.17 |
| GGACAGCAAUAUUACGCGCG | 0.181 ± 0.094 | -0.742 ± 0.11 |
| GGACAGCAAUAUUACGCUCG | -0.123 ± 0.086 | -0.0297 ± 0.11 |
| GGACAGCAAUAUUACGCUCU | -2.19 ± 0.25 | – |
| GGACAGCAAUAUUACGCUGU | -2.73 ± 0.21 | -2.96 ± 0.31 |
| GGACAGCAAUAUUACGGAGA | -2.98 ± 0.15 | -2.61 ± 0.2 |
| GGACAGCAAUAUUACGGGAU | -2.05 ± 0.087 | -0.814 ± 0.1 |
| GGACAGCAAUAUUACGGGGA | -2.72 ± 0.16 | -3.05 ± 0.26 |
| GGACAGCAAUAUUACGGGUA | -2.33 ± 0.11 | -1.67 ± 0.093 |
| GGACAGCAAUAUUACGGUGA | -0.838 ± 0.063 | -0.167 ± 0.071 |
| GGACAGCAAUAUUACGGUUC | -3.64 ± 0.15 | -1.82 ± 0.14 |
| GGACAGCAAUAUUACGUGGG | -2.49 ± 0.12 | -2.28 ± 0.12 |
| GGACAGCAAUAUUACGUUCG | -0.223 ± 0.076 | 0.0323 ± 0.095 |
| GGACAGCAAUAUUACGUUGG | -1.69 ± 0.088 | -0.723 ± 0.11 |
| GGAGAGCAAUAUUACGAAAC | -2.48 ± 0.29 | -1.36 ± 0.47 |
| GGAGAGCAAUAUUACGACCU | -1.9 ± 0.24 | -0.666 ± 0.26 |
| GGAGAGCAAUAUUACGACGU | -1.29 ± 0.2 | -0.823 ± 0.25 |
| GGAGAGCAAUAUUACGAGAG | -3.07 ± 0.25 | -2.31 ± 0.33 |
| GGAGAGCAAUAUUACGAGGC | -2.83 ± 0.23 | -1.95 ± 0.37 |

| Sequence | self-splicing fitness (ln) (30 °C) | self-splicing fitness (ln) (37 °C) |
| --- | --- | --- |
| GGAGAGCAAUAUUACGCACU | -2.77 ± 0.49 | -1.94 ± 0.46 |
| GGAGAGCAAUAUUACGCGCU | -2.69 ± 0.25 | -1.67 ± 0.28 |
| GGAGAGCAAUAUUACGCGGU | -3.77 ± 0.47 | – |
| GGAGAGCAAUAUUACGCUAG | -1.3 ± 0.36 | -0.901 ± 0.42 |
| GGAGAGCAAUAUUACGGGGA | -3.31 ± 0.49 | – |
| GGAGAGCAAUAUUACGGGUA | -3.5 ± 0.28 | -2.62 ± 0.2 |
| GGAGAGCAAUAUUACGGUAC | -3.27 ± 0.5 | -2.07 ± 0.24 |
| GGAGAGCAAUAUUACGUAAU | – | -0.814 ± 0.2 |
| GGAGAGCAAUAUUACGUAGC | – | -0.906 ± 0.37 |
| GGAGAGCAAUAUUACGUCUG | -1.13 ± 0.2 | -0.491 ± 0.25 |
| GGAGAGCAAUAUUACGUGCU | -2.88 ± 0.27 | – |
| GGAGAGCAAUAUUACGUUUU | -3.36 ± 0.23 | -1.15 ± 0.3 |
| GGAUAGCAAUAUUACGAUCC | -1.95 ± 0.45 | – |
| GGAUAGCAAUAUUACGCAAG | -1.28 ± 0.27 | -0.103 ± 0.34 |
| GGAUAGCAAUAUUACGCACG | -1.12 ± 0.16 | -0.963 ± 0.15 |
| GGAUAGCAAUAUUACGGACC | -0.822 ± 0.22 | -0.154 ± 0.25 |
| GGAUAGCAAUAUUACGGGGC | -3.69 ± 0.23 | -1.95 ± 0.16 |
| GGAUAGCAAUAUUACGGUCA | -0.171 ± 0.081 | -0.0595 ± 0.11 |
| GGAUAGCAAUAUUACGGUCC | – | -2.68 ± 0.48 |
| GGAUAGCAAUAUUACGGUUA | -0.755 ± 0.2 | 0.0186 ± 0.17 |
| GGAUAGCAAUAUUACGUAAG | -1.87 ± 0.17 | -0.386 ± 0.2 |
| GGAUAGCAAUAUUACGUGCG | -0.974 ± 0.094 | -0.046 ± 0.12 |
| GGAUAGCAAUAUUACGUUGC | -4.63 ± 0.36 | -2.2 ± 0.28 |
| GGAUAGCAAUAUUACGUUUU | -1.33 ± 0.11 | -1.62 ± 0.14 |
| GGCAAGCAAUAUUACGAAAG | -2.97 ± 0.28 | – |

| Sequence | self-splicing fitness (ln) (30 °C) | self-splicing fitness (ln) (37 °C) |
| --- | --- | --- |
| GGCAAGCAAUAUUACGAGCC | -2.21 ± 0.43 | -1.52 ± 0.44 |
| GGCAAGCAAUAUUACGAGCG | -0.697 ± 0.073 | 0.427 ± 0.097 |
| GGCAAGCAAUAUUACGAGUA | -1.52 ± 0.15 | -0.685 ± 0.13 |
| GGCAAGCAAUAUUACGAGUG | -1.1 ± 0.069 | -0.88 ± 0.071 |
| GGCAAGCAAUAUUACGAUUC | 0.184 ± 0.062 | 0.142 ± 0.091 |
| GGCAAGCAAUAUUACGCACA | -0.684 ± 0.09 | 0.564 ± 0.11 |
| GGCAAGCAAUAUUACGCCCC | – | -1.27 ± 0.35 |
| GGCAAGCAAUAUUACGCGCA | 0.145 ± 0.077 | 0.461 ± 0.11 |
| GGCAAGCAAUAUUACGCUUG | -3.26 ± 0.2 | -3.49 ± 0.34 |
| GGCAAGCAAUAUUACGGAAU | -0.693 ± 0.075 | -0.506 ± 0.1 |
| GGCAAGCAAUAUUACGGCAC | -0.671 ± 0.071 | 0.369 ± 0.12 |
| GGCAAGCAAUAUUACGGCAG | -2.32 ± 0.14 | -1.15 ± 0.15 |
| GGCAAGCAAUAUUACGGCAU | -0.207 ± 0.043 | 0.531 ± 0.06 |
| GGCAAGCAAUAUUACGGUAA | -1.28 ± 0.097 | 0.108 ± 0.094 |
| GGCAAGCAAUAUUACGGUAU | -1.17 ± 0.068 | -0.119 ± 0.077 |
| GGCAAGCAAUAUUACGGUUG | -1.16 ± 0.063 | -0.62 ± 0.083 |
| GGCAAGCAAUAUUACGUAGA | 0.226 ± 0.077 | 0.582 ± 0.11 |
| GGCAAGCAAUAUUACGUAGU | -1.52 ± 0.098 | -0.197 ± 0.11 |
| GGCAAGCAAUAUUACGUCCG | -3.73 ± 0.27 | -1.61 ± 0.2 |
| GGCAAGCAAUAUUACGUGAA | -0.509 ± 0.091 | 0.184 ± 0.11 |
| GGCAAGCAAUAUUACGUUCU | -0.68 ± 0.089 | 0.436 ± 0.11 |
| GGCAAGCAAUAUUACGUUUC | -0.714 ± 0.1 | -0.0706 ± 0.14 |
| GGCCAGCAAUAUUACGAAAG | -4.21 ± 0.37 | -2.71 ± 0.41 |
| GGCCAGCAAUAUUACGAAGA | -3.15 ± 0.22 | -2.85 ± 0.27 |
